Results from the Human Domainome abundance scans (Beltran et al. 2025).
± gives the uncertainty stated by the source.

Experiment: abundance fitness (aPCA) (normalised: wild type 0, dead -1); higher = more abundant; growth selection in yeast, the domain comes from the species named
Conditions: Homo sapiens

Substance	abundance fitness
E3 ubiquitin-protein ligase NEDD4 A851D, P46934	-0.043 ± 0.04
E3 ubiquitin-protein ligase NEDD4 E869I, P46934	-0.137 ± 0.071
E3 ubiquitin-protein ligase NEDD4 F857Y, P46934	0.013 ± 0.048
E3 ubiquitin-protein ligase NEDD4 H850V, P46934	-0.155 ± 0.055
E3 ubiquitin-protein ligase NEDD4 I859V, P46934	-0.074 ± 0.065
E3 ubiquitin-protein ligase NEDD4 K844D, P46934	-0.053 ± 0.031
E3 ubiquitin-protein ligase NEDD4 K864R, P46934	-0.042 ± 0.053
E3 ubiquitin-protein ligase NEDD4 N853D, P46934	-0.116 ± 0.071
E3 ubiquitin-protein ligase NEDD4 P852S, P46934	-0.058 ± 0.055
E3 ubiquitin-protein ligase NEDD4 R849K, P46934	0.052 ± 0.062
E3 ubiquitin-protein ligase NEDD4 T863Q, P46934	-0.511 ± 0.1
E3 ubiquitin-protein ligase NEDD4 V848I, P46934	-0.103 ± 0.075
